Laboratory results taken from publication PMC12169211.

B1: hybrid bispecific aptamer without toehold (HBA; 15-mer-Sticky + 29-mer-Sticky) (structured_DNA)
DNA 1: GGTTGGTGTGGTTGGTTTTTGACCCTGCGTACC
DNA 2: AGTCCGTGGTAGGGCAGGTTGGGGTGACTTTTTTGGTACGCAGGTC
B2: toehold hybrid bispecific aptamer (THBA; 15-mer-Sticky + 29-mer-Sticky-TH) (structured_DNA)
DNA 1: B1 DNA 1
DNA 2: AGTCCGTGGTAGGGCAGGTTGGGGTGACTTTTTTGGTACGCAGGTCCGTTA

Target: thrombin (biotinylated, immobilized on streptavidin microparticles) (UniProt P00734;P00734 328-363;364-622)
Assay: microparticle flow cytometry; Thrombin-microparticles incubated with 0.5-200 nM FAM-aptamer, washed with DPBS, flow cytometry; binding buffer, pH and temperature not stated

Row | Binder | Kd
1 | B1 | 4.8 nM
2 | B2 | ~5.7 nM
